Consider 1 molecule from EP2170953B1.

The target in the experiment is Aβ1-28 peptide, biotinylated (Anaspec). As to the kind of experiment: ELISA on biotinylated peptide, Ab 10 µg/ml, mean of 2, background subtracted. The conditions noted are these: remark: other sources report otherwise. (ELISA stands for enzyme-linked immunosorbent assay.)
Sequence of Aβ1-28 peptide, biotinylated (Anaspec) (chain, as listed by the source): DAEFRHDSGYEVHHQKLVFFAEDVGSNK

B1: ACI-12-Ab-11 (antibody, V domains shown)
VL: QAVVTQESALTTSPGGTVILTCRSSTGAVTTSNYANWVQEKPDHLFTGLIGGTSNRAPGVPVRFSGSLIGDKAALTITGAQTEDDAMYFCALWYSTHYVFGGGTKVTVL
VH: QVQLQQSDAELVKPGASVKISCKVSGYTFTDHTIHWMKQRPEQGLEWIGYIYPRDGSTKYNEKFKGKATLTADKSSSTAYMQLNSLTSEDSAVYFCARDYGYAFDYWGQGTTLTVSS
modifications: here or on the partner: biotinylated (position not given)
Regarding B1, the O.D. (mean) was -0.02 O.D.
